In patent US8722043B2, “Induction of p53 expression by neutralization of neuropilin-2 for the treatment of cancers” (Diaclone, priority 2008, dated 2014):

Experiments:
[1] = system: Colo320 human tumour cells; experiment: Tumour colony formation in semi-solid agar medium; format: cell-based
Method: In order to determine whether the ITAC-B1 antibody has a neutralizing activity on the formation of tumour colonies in vitro, tests for tumour colony formation in vitro in a semi-solid agar medium containing agar were carried out. The principle of this test is based on bringing Colo320 human tumour cells (which express NRP-2 at their membrane surface and, furthermore, naturally secrete VEGF into the culture medium) into contact with the ITAC-B1 antibody. 4000 Colo320 cells are seeded into each well of a 24-well plate, in a semi-solid medium containing agar, and in the presence of 10 μg/ml of anti-NRP-2 antibody ITAC-B1. By way of comparison, the same test is carried out in the presence of cytotoxic agents with a proven action, i.e. 5-fluorouracil (5-FU), used at a rate of 50 μg/ml, or of Avastin® (bevacizumab: humanized monoclonal antibodies directed against VEGF), used at a rate of 50 μg/ml, or in the presence of a control isotype antibody (mouse IgG1 monoclonal antibody (BZ1)), used at a rate of 10 μg/ml.
At 10 days post-seeding, the colonies were counted under an optical microscope.
Since neuropilin-2 is a coreceptor for VEGF, it was verified whether the activity of ITAC-B1 was dependent on an interaction between NRP-2 and the VEGF produced by the Colo320 cells. With this aim, the tests for Colo320-cell colony formation were carried out under the conditions described above, and in the presence of ITAC-B1 antibody (10 μg/ml), of bevacizumab (50 μg/ml) or of control antibody (10 μg/ml), used separately or in combination.
The results are given in FIG. 10: the y-axis represents the number of colonies formed; on the x-axis, the antibodies present in the culture medium are indicated by a “+”.

[2] = system: Colo320siRNA-ctrl cells; experiment: Annexin V-APC apoptosis test with or without PFTα pretreatment; format: cell-based, human; conditions: 20 μg/ml, 5 h
Method: In order to correlate the induction of apoptosis with p53 expression, the Colo320siRNA-ctrl cells were pretreated for 18 h with a chemical inhibitor of p53, pifithrin-α, at a dose of 27 μM (PFTα, Sigma). After pretreatment, the cells are washed twice with 3 ml of PBS and placed in a 24-well plate, at a rate of 100 000 cells/well in 1 ml of RPMI-10% FCS. Non-pretreated cells are placed under the same conditions. The cells are incubated for 5 h with a control murine isotype antibody (BZ1) or ITAC-B1 at 20 μg/ml and the apoptosis is measured as described above.
FIG. 14 represents the results of the apoptosis-induction experiments carried out with the Colo320siRNA-ctrl cells pretreated or not pretreated with PFTα. The percentage of cells labelled with Annexin V-APC is indicated on the y-axis, the cell culture conditions are indicated on the x-axis (control consisting of medium, control consisting of medium supplemented with a control isotype antibody -BZ1-, test consisting of medium supplemented with the ITAC-B1 antibody). The results of the tests carried out with cells pretreated with PFTα are represented in light grey, those of the tests carried out with non-pretreated cells are represented in dark grey.

[3] = system: VEGFR1; experiment: Western blotting of VEGFR1 phosphorylation; format: cell-based, human; conditions: 20 μg/ml, 24 hours; HT29-NRP-2 and Colo320^siRNA-ctrl cells; treated versus not treated
Method: (§1) The possible effect of the ITAC-B1 antibody on the degree of phosphorylation of a VEGF receptor (VEGFR1), and also on the phosphorylation of the AKT protein which is activated by means of the VEGF receptors, was studied on HT29-NRP-2 and Colo320^siRNA-ctrl tumour cells.
(§2) The cells were cultured for 24 hours in RPMI medium+10% FCS in the presence of the BZ1 control antibody at 20 μg/ml, of ITAC-B1 at 20 μg/ml or of 5-FU at 50 μg/ml. A “nontreated cell” control was added (“medium” control). The cells were then isolated and lysed, and the phosphorylation of VEGFR-1 and of AKT was evaluated by Western blotting on the cell protein extracts, using antibodies directed against nonphosphorylated VEGFR1 (anti-VEGFR1 rabbit polyclonal antibody) or phosphorylated VEGFR1 (anti-phospho-VEGFR1^Tyr1213 rabbit polyclonal antibody, R&D systems) or antibodies directed against nonphosphorylated AKT (rabbit polyclonal antibody C67E7, Cell Signaling technology) or phosphorylated AKT (anti-phospho-AKT^Ser473 rabbit polyclonal antibody DE-9, Cell Signaling technology). The results are represented in FIGS. 16 and 17.

[4] = system: AKT protein; experiment: Western blotting of AKT and its phosphorylation; format: cell-based, human; conditions: 20 μg/ml, 24 hours; HT29-NRP-2 and Colo320^siRNA-ctrl cells; treated versus not treated
Method: as §1, §2

[5] = system: p53 protein; experiment: Western blotting of p53 expression after antibody treatment; format: cell-based, human; conditions: 20 ng/ml, 48 hours
Method: The HT29, HT29-NRP-2, Colo320^siRNA-ctrl tumour cells and Colo320^siRNA-NRP-2 were exposed to 20 ng/ml of ITAC-B1 antibody or of control antibody, and cultured for 48 hours. After lysis of the cell lines, migration of the protein pellets obtained on a 10% polyacrylamide gel (10 μg of protein per well) and then transfer onto a PVDF membrane, the membrane was incubated overnight with the anti-p53 primary antibody (BD Biosciences, mouse anti-human p53) diluted to 1/500. After washing in TBS/0.1% Tween20, the membranes were incubated for 1 hour with an anti-mouse IgG-HRP secondary antibody diluted to 1/6000. The results are represented in FIG. 19.

B1: ITAC-B1: anti-human neuropilin-2 murine monoclonal antibody, VH SEQ ID No. 2, VL SEQ ID No. 4, produced by hybridoma CNCM 1-4054 (antibody, listed as Mus musculus, V domains shown)
VH: EVKLQESGAELVKPGASVKLSCTVSGFNIKDTYIHWVIQRPEQGLEWLGRIDPANGNTKYDPKFQGKATITADTSSNTAYLQLSSLTSEDTAVYYCARWAVVGDYWGQGTTLTVSS
VL: YCDHPLYKFLHVSAGDRVTITCKASQSVSDDVAWYQQKPGQSPKLLIYSASNRYTGVPDRFTGSGYGTDFTFTISTVQPEDLAVYFCQQDYSSPTFGSGTKLELK
[1]; ITAC-B1 10 μg/ml alone (FIG. 10)
  number of colonies compared with the cells alone control: greatly reduced
[1]; ITAC-B1 10 μg/ml combined with bevacizumab 50 μg/ml (FIG. 10)
  number of colonies: identical to that observed when the medium contains the ITAC-B1 antibody alone
[2]; cells pretreated 18 h with PFTα 27 μM
  percentage of cells labelled with Annexin V-APC: approximately 28%
[2]; non-pretreated cells
  percentage of cells labelled with Annexin V-APC: 41%
[3]
  phosphorylation status of VEGFR: similar
[4]
  amount of AKT and its phosphorylation status: similar
[5]; HT29-NRP-2 and Colo320^siRNA-ctrl
  expression of p53 in lines which express NRP-2: partly restores the expression of p53
[5]; HT29-ctrl and Colo320^siRNA-NRP-2, with or without antibody
  expression of p53 in lines which do not express NRP-2: strongly expressed
